Assay results reported in the nanobody polyreactivity screen of Harvey et al. (2022).

Assay: yeast display, Sf9 membrane polyspecificity reagent, FACS + sequencing; frameworks hold sequencing errors
Procedure, shortened: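 Using colony PCR, genes from sorted yeast display clones were amplified, then sequenced on MiSeq at 2 × 250 and filtered by CDR length. The clones had been stained with 10% biotinylated, detergent-solubilized Sf9 membrane reagent for 1 hour at 4 °C and sorted by FACS into low and high (top ~1%) gates on anti-HA and streptavidin fluorescence. Polyreactivity labels come from the gate of origin.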

Sequence | polyreactivity (PSR sort gate)
QVQLVESRGALVQAGGSLRLSCAASGYIFRAYAMGWYRPAPGKERELVAAISSRGGSTYYADSVKGRFTISRDNAKNTVYLQMNSLKPEDTAVYYCAAAYRQPYIGYGYWGQGTQVTVSS | high polyreactivity
QVQLVESGGGLVHAGGSLRLSCAASGFTFGTYAMGWYRQAPGKEMELVSAISWKGGSTFYADSVKGRFTISRDNAKNTVYLQMNSLKPEDTAVYYCSKLLRRGGHRVFTYDYWGQGTQVTVSS | high polyreactivity
QVQLVESGGGLVQAGGSLRLSCAASGYTIRYYAMGSYRQAPGKERELVADISYSGGRTYYADSVKGRITISRDNAKNTVDLLMNSLKPEDSAVYYSNARGGRRAYNYGYWGQGTQVTVSS | high polyreactivity
QVQLVESGGGLVQAGGSLRLSCAASGSIIARYAMGWYRQSPGKERELVAAITCSATSTYYADSVKGRFTISRDYAKNTVYLQLNSLKPEDTAVYYWNAGASYFLVISQSRRDYWGQGTQVTVSS | low polyreactivity
QVQLVESGGGLVQAGGSLRLSCAASGIIFRNNAMGWYRQAPGKEREFVARISKRGGSTYYADSVKGRFTISRDNAKNTVYLQMNSLKPEDTAVYYCAKGYGSGSYLYDYWGQGTQVTVSS | high polyreactivity
QVQLVESGGGLVQAGGSLRLSCAASGFTFVGYAMGWYRQAPGKERELVAAITRRGGSTYYADSVKGRFTISRDNAKNTVYLQMNSLKPEDTGVYDCNKASYRISVPRYDYWGQGTQVTVSS | high polyreactivity
QVQLVESGGGLVQAGGSLRLSCAASGFIFASNVMGWYRQAPGKERELVAAISWSGTRTYYADSVKGRFTISRDNAKNTVYLQMNSLKPEDTAVYYCAARRLYAGHQYDYWGQGTQVTVSS | high polyreactivity
QVQLVESGGGLVQAGGSLRVSCAPSGGTFGYYTMGWYRQAPGTERELVAAISSGGGTDYADSVKGRFTISRDNAKNTVYLQMNSLKPEDTAVYYCNAKWLELHYVFLPSYTMDYWGHGTQVTVSS | low polyreactivity
HVQLVESGGGLVQAGGSLRLSCAASGIIFITNAMGWYRQAPGKERELVAAISSTVSTYYADSVKGRFTISRDKAKNTVYLQMNRLKPADTAVYYCAAEWGLTQGESIYDYWGQGTQVTVSS | low polyreactivity
QVQLVESGGGLVQAGGSLRLSCAASGRTFYTYAMGWYRPAPGKERELVASISSGGNTNYADSVKGRFTISRDNAKNTVYLQMNSLKPEDTAVYYCAASYLKRRGYWGQGTQVTVSS | low polyreactivity
QVQLVESGGGLVQAGGSLRLSCASSGSILGRYAMGWYRQAPGKERELVAAISGSGGSTYYADSVKGRFTISRDNAKNTVYLQMNSLKPEDTAVYYCAAERFIYYQIFEYWGQGTQVTVSS | high polyreactivity
QVQLVESGGGLVQAGGSLRLSCAASGRIFYRYAMGWDSQAPGKERELVAAISCGGSTYYADSVKGRFTISRDNAKNTVYLQMNSLKPEDSAVYYCAATWGRGTYYLYYYWGQGTQVTVSS | high polyreactivity
QVQLEVSGGVLVQPGGSIRLSCAASGFIFGFYAKGWYRQAPGKERELVASISGRGGRTSYADSVKGRFTISRDNAKNTVYLQMNSLKPEDTAVYYCNKAGYGVSRKYDYWGQGTQVNVSS | high polyreactivity
QVQLVESGGGLVQAGGSLRLSCAASGFTFWQYTMGWYRQAPGKERDFVASITSGVSTYYADSVKGSFTISRENAKNTVYLQMNSVKPEDTAVYYCAAYYYRRYLRGFFENWGQGTQVTVSS | high polyreactivity
QVQLVESGGGLVQAGGSLRLSCAASGSTFKYYAMGWYRQAAGKERELVATITRRSGSTYYADSVKGRFTISRDNAKNTVYLQMNSLKPEDTAVYYCNAYGPYKYNYWGQGTQVTVSS | high polyreactivity
QVQLVESGGGLVQAGGSLRLSCAASGSTFIVNAMRWYRQAPGKERELVAAIDWSGGSTYYADSVKGRFTISRDNAKNTVYLQMNSLKPEDTAVYYCAAQYEIPAGNSTYDYWGQGTQVTVSS | low polyreactivity
QVHLVESGGGLVQAGGSLRLSCAASGLTFPSNAMGWYRQAPGKERELVAAISKRGGRTYYADSVKGRFTISRDNAKNSVYLQMNSLKPEDTAVYYFATPYAYPGTVQYAGYNYWGQGTQVTVSS | high polyreactivity
QVQLVESGGGLVQAGGSLRLSCAASGLIFGTKAMGCYRQAPGKERELVAAMSGSGGRTYYADSVKARFTISRDNAKNTVYLQMNSLKPEDTAVYYCASRFWRLHVGYGYSGQGTQVTVSS | high polyreactivity
QVQLVESGGGLVQAGGSLRLSCAASGRTFDRYAMGWYRQAPGKERELVAAISSGGSTYYADSVKGRFTISRDNAKNTVYLQMNSLKPEDTAVYYCAAGESGSFFIYYYWGQGTQVTVSS | low polyreactivity
QVQLVESGGGLVQAGVSLRLSCSASGLTFRPNAIGWYRQAPGKERELVAAITWSGGRTYYADSVKGRFTISRDNATNTVYFQMNSLKPEDTAVYYCAAVPLRNRWPNSWPALDYWGQVTQVTVSS | high polyreactivity
QVQLVESGGGLVQAGGSLRLSCAASGITFYGNAMGWYRQAPGKERELVAGIRSSGGDTYYADSVKGRFTISRDNAKNTVYLQMNSLKPEDTAVYYCAADFDWFIWGYDYWGQGTQVTVSS | low polyreactivity
QVQLVESGGGLVQAGGSLRLSCAASGSTFPSYAMGWYRQAPGKERELVAAITNGGSTTYADSVKGRFTISRDNAKNTVYIQMNSLKPEDTAVYYCAARYYYYYYYIRRDYWGQGTQVTVSS | low polyreactivity

Sequence | polyreactivity (PSR sort gate)
QVQLVESGGGLVQAGGSLRLSCAASGSIFGNNAMGWYRQAPGKERELVAGINYSGGRTYYADSVKGRFTISRDNAKNTVYLQMNSLKPEDTAVYYCAADGHRQVGWWRFEYGYWGQGTQVTVSS | low polyreactivity
QVQLVESGGGLVQAGGSLRLSCAASGIIFRWYAMGWYRQAPGKERELVAGITSTTGTTYYADSVKGRFTISRDNAKNTVYLQMNSLKPEDTAVYYCAADYYCYTTAGVVDSFEYWGQGTQVTVSS | low polyreactivity
QVQLVESGGGLVQAGGSLRLSCAASGSTFDSNVMGCYRQAPGKERELVAVINGSGSNTYYADSVKGRFTISRDNAKNTVYLQMNSLKPEDTAVYYCAARVYVSRSKRLNYWGQGTQVTVSS | high polyreactivity
QVQLVESGGGLVQAGGSLRLSCAASGSILTRNAMGWYRQAPGKERELVAAISYSGVRTYYADSVKGRFTISRDNAKNTVYLQMNSLKPEDTAVYYCNAVISSRYDYWGQGTQVTVSS | high polyreactivity
QVQLVESGGGLVQAGGSLRLSCAASGFTFGFYAMGWYIQAPGNERELVASITTRGGSTRYADSVKGRFTISRDNAKNTVYLQMNSLKPEDTAVYYCAAQYSYVRYLKRGYGYWGQGTQVTVSS | high polyreactivity
QVQLVESGGGLVQAGGSLRLSCAASGITFYLNAMGWYRQAPGKERELVADITVSGGSTYYADSVKGRFTISRDNAKNTVYLQMNSLKREDTAVYYCAADLTISYSQEYYYWGQGTQVTVSS | low polyreactivity
QVHLVESGGGLVQAGGSLRLSCAASGITFWGNAMGWYRHAPGKEREFVARINWSGGRTYYAESVKGRFTISRDNAKITVYLQMKSLKPEDTAVYYCAATSLIYGYRTYVYWGQGTQVTVSS | high polyreactivity
QVQLVESGGGLVQAGGSLRLSCAASGRNLVQYTMGWYRQAPGKERELVAVISWRECRTYYADSVKGRFTISRDNAKNTVFLQMNSLKPVDTAVYYCATSGSFWQRYYWGQGTQVTVSS | low polyreactivity
QVQLVESGGGLVQAGGSLRLSCAASGSTFRRNAMGWYRQAPGKERELVAAISRRGGSTYYADSVKGRFTISRDNAKNTVYLQMNSLKPEDTAVYYCAADNTQVRPKYDYWGQGTQVTVSS | high polyreactivity
QVQLVESGGGLVQAGGSLRLSCAASGRIFVKYAMGWYRQAPGKERELVAAITKSGSSTYYADSVKGRFTISRDNAKNTVYLQMNSLKPEDTAVYYCAALTISRSRTGYYWGQGTQVTVSS | low polyreactivity
QVQLVESGGGLVQAGGSLRLSCAASGFIFFRYDMAWYRQAPGKERELVAVITSSGSTNYADSVKGRFTISRDNAKNTVYLQMNSLKPEDTAVYYCNARGYWTWYRGYRMDYWGQGTQVTVSS | high polyreactivity
QVQLVESGGGLVQAGGSLRLSCAASGSTFAWNAMGWYRQAPGKERELVAAISWSGVRTYYADSVKGRFTISRDNAKNTVYLQMNSLKPEDTAVYYCAAPVYWAYTRSMDYWGQGTQVTVSS | high polyreactivity
QVQLVESGGGLVQAGGSLRLSCAASGIIFDDYAMGWYRQAPGKERELVAAIRSGVSTNYADSVKGRFTISRDNAKNTVYLQMNSLKPEDTAVYYGAARNTAPYFTEYDYWGQGTQVTVSS | low polyreactivity
QVQLVESGGGLVQAGGSLRLSCAASGYIFSGYAMGWYRQAPGKEMELVAAISSNGGSTYYADSVKGRFTISRDNAKNTVYLQMNSLKPEDTAVYYCNRGLAARVGRGDYWGQGTQVTVSS | low polyreactivity
QVQLVESGGGLVQAGGSLRLSCAASGFTLYRNAMGWYRQAPGKERELVAAITSSGGGTYYADSVKGRFTISRDNAKNTVYLQMNSLKPEDTAVYYCAARSTSDREGNYWGQGTQVTVSS | low polyreactivity
QVQLVESGGGLVQAGGSLRLSCAASGRTFSRYAMGWYRQAPGKERELVAAISSSGGSTYYADSVKGRFTISRDNAKNTVYLQMNSLKPEDTAVYYCAKYFIRDNRYDYWGQGTQVTVSS | high polyreactivity
QVQLVESGGGLVHAGGSLRLSCAASGRTFNYYAMGWYRQAPGKERELVAAISKSTGNTYYADSVKGRFTISRDNAKNTVYLQMNSLKPEDTAVYYCAAKKRGSHVYQYDYCGQGTQVTVSS | low polyreactivity
QVQLVESGGGLVQAGGSLRLSCAATGIIFRYAMGWYRQAPGKERELVAAIRKSDGSTYYADSVKGRFTISRDNAKNTVYLQMNSLKPEDTAVYYCATDIVYGNRKGFYYWGQGTQVTVSS | high polyreactivity
QVQLVESGGGLVQAGGSLRLSCAASGSTSTWYAMGWYRQAPGKERELVATITGSGDTTYYADSVKGRFTISRDNAKNTVYLQMNSLKPEDTAVYYCAADYDPDDDTYDYWGQGTQVTVSS | low polyreactivity
QVQLVESGGGLVQAGGSLRLSCAASGSIFYTNAMGWYRQAPGKERELVAAISCSGDSTYYADSVKGRFTISRDNAKNTVYLQMNSLKPEDTAVYYCNADRRSYNGFRYYYWGQGTQVTVSS | low polyreactivity
QVQLVESWGGLGQAVGSLRLSCAASGRTFLIYAMGWYIQAPGTERELVASITGRGGRTSYADSVKGRFTISRDNAQNTVYLQMNSLKPEDTAVYYCAARNPYTSTYYYWGQGTQVTVSS | high polyreactivity
